T1: human GIP receptor (human, UniProt P48546 22-466)
T1 sequence (looked up): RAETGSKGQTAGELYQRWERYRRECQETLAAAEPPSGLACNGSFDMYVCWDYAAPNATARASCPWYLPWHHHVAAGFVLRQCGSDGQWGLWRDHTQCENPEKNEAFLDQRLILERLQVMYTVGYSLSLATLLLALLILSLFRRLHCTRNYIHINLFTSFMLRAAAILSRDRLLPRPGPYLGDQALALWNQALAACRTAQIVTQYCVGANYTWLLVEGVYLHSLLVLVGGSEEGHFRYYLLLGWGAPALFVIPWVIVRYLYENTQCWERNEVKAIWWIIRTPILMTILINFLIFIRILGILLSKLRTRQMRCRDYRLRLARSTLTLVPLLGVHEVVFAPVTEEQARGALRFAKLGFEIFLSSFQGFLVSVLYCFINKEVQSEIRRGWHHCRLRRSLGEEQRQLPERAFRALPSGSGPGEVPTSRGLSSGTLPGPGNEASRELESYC


Columns and labels:
Test in all cases: cell-based or functional assay
human GIP receptor = biological target: T1, human GIP receptor
human glucagon receptor = human glucagon receptor (human, UniProt P47871 26-477)
human GLP-1 receptor = human GLP-1 receptor (human, UniProt P43220 24-463)

Binder | EC50, cAMP (human GIP receptor) [nM] | EC50, cAMP (human glucagon receptor) [nM] | EC50, cAMP (human GLP-1 receptor) [nM] | Emax, cAMP (human GIP receptor) [%] | Emax, cAMP (human GLP-1 receptor) [%]
YXEGTXTSDXSIXLDXKAQXEFIXXLIEGGKSSGAPPPS (Aib2, αMeF(2F)6, 4Pal10, αMeL13, Orn16, Aib20, D-Glu24, αMeY25, K17 and K31: K(AEEA2-(εK)-CO-(CH2)12-CO2H), C-terminal NH2) [Example 33] | 0.00957 | > 9950 | 0.37 |  | 
YXEGTXTSDXSIXLDXKAQXEFIXXLIEGGKSSGAPPPS (Aib2, αMeF(2F)6, 2Nal10, αMeL13, Orn16, Aib20, D-Glu24, αMeY25, K17 and K31: K(AEEA2-(γ-Glu)-CO-(CH2)12-CO2H), C-terminal NH2) [Example 57] | 0.0135 | > 9950 | 0.14 |  | 
YXEGTXTSDXSIXLDXKAQXEFIXXLIEGGKSSGAPPPS (Aib2, αMeF(2F)6, αMeL10, αMeL13, Orn16, Aib20, D-Glu24, αMeY25, K17 and K31: K(AEEA2-(γ-Glu)-CO-(CH2)12-CO2H), C-terminal NH2) [Example 51] | 0.11 | > 9950 | 0.89 |  | 
YXEGTXTSDXSIXLDXKAQXEFIXXLIEGGKSSGAPPPS (Aib2, αMeF(2F)6, 4Pal10, αMeL13, Orn16, Aib20, D-Glu24, αMeY25, K17 and K31: K(AEEA2-(γ-Glu)-(4-(4-iodophenyl)butanoyl)), C-terminal NH2) [Example 3] | 0.0133 | > 9950 | 0.223 |  | 
YXEGTXTSDXSIXLDXKAQXEFIXXLIEGGKSSGAPPPS (Aib2, αMeF(2F)6, 4Pal10, αMeL13, Orn16, Aib20, D-Glu24, αMeY25, K17 and K31: K(AEEA2-(γ-Glu)-(10-(4-carboxyphenoxy)decanoyl)), C-terminal NH2) [Example 2] | 0.0154 | > 9950 | 1.14 |  | 
YXEGTXTSDXSIXLDXKAQXEFIXXLIEGGKSSGAPPPS (Aib2, αMeF(2F)6, Ac5c10, αMeL13, Orn16, Aib20, D-Glu24, αMeY25, K17 and K31: K(AEEA2-(γ-Glu)-CO-(CH2)12-CO2H), C-terminal NH2) [Example 53] | 0.0841 | > 9950 | 0.18 |  | 
YXEGTXTSDXSIXLDXKAQXEFIXXLIEGGKSSGAPPPS (Aib2, αMeF6, 4Pal10, αMeF13, Orn16, Aib20, D-Glu24, αMeY25, K17 and K31: K(AEEA2-(γ-Glu)-CO-(CH2)12-CO2H), C-terminal NH2) [Example 46] | 0.0801 | > 9950 | 3.29 | 89.5 | 
YXEGTXTSDXSIXLDXKAQXEXIXXLIEGGKSSGAPPPS (Aib2, αMeF(2F)6, 4Pal10, αMeL13, Orn16, Aib20, 3ClPhe22, D-Glu24, αMeY25, K17 and K31: K(AEEA2-(γ-Glu)-CO-(CH2)12-CO2H), C-terminal NH2) [Example 62] | 0.0211 | > 9950 | 0.48 |  | 99.4
YXEGTXTSDXSIXLDXKAQXEFIXXLIEGGKSSGAPPPS (Aib2, αMeF(2F)6, 4Pal10, αMeL13, Orn16, Aib20, D-Glu24, αMeY25, K17 and K31: K((γ-Glu)-AEEA-CO-(CH2)12-CO2H), C-terminal NH2) [Example 42] | 0.0103 | > 9950 | 0.429 |  | 
YXEGTXTSDXSIXLDXKAQXEXIXXLIEGGKSSGAPPPS (Aib2, αMeF(2F)6, 4Pal10, αMeL13, Orn16, Aib20, 2ClPhe22, D-Glu24, αMeY25, K17 and K31: K(AEEA2-(γ-Glu)-CO-(CH2)12-CO2H), C-terminal NH2) [Example 61] | 0.012 | > 9950 | 1.35 |  | 82.9
YXEGTXTSDYXIXLDXKAQXEFIXXLIEGGKSSGAPPPS (Aib2, αMeF(2F)6, Aib11, αMeL13, Orn16, Aib20, D-Glu24, αMeY25, K17 and K31: K(AEEA2-(γ-Glu)-CO-(CH2)12-CO2H), C-terminal NH2) [Example 50] | 0.0168 | > 9950 | 0.273 | 94.7 | 
YXEGTXTSDXSIXLDXKAQXEFIXXLIEGGKSSGAPPPS (Aib2, αMeF(2F)6, 4Pal10, αMeL13, Orn16, Aib20, D-Glu24, αMeY25, K17 and K31: K(AEEA2-(γ-Glu)-(4-(4-tert-butylphenyl)butanoyl)), C-terminal NH2) [Example 4] | 0.00962 | > 9950 | 0.137 |  | 
YXEGTXTSDXSIXLDXKAQXEFIXKLIEGGPSSGAPPPS (Aib2, αMeF(2F)6, 4Pal10, αMeL13, Orn16, Aib20, D-Glu24, K17 and K25: K(AEEA2-(γ-Glu)-(4-(4-tert-butylphenyl)butanoyl)), C-terminal NH2) [Example 67] | 0.00795 | > 9950 | 2.63 |  | 91.7
YXEGTXTSDXSIXLDXKAQXEFIXXLIEGGKSSGAPPPS (Aib2, αMeF(2F)6, 4Pal10, αMeL13, Orn16, Aib20, D-Glu24, αMeY25, K17 and K31: K((γ-Glu)-AEEA2-CO-(CH2)12-CO2H), C-terminal NH2) [Example 41] | 0.0108 | > 9950 | 0.691 |  | 
YXEGTXTSDXSIXLDXKAQXEFIXXLIEGGKSSGAPPPS (Aib2, αMeF(2F)6, αMeV10, αMeL13, Orn16, Aib20, D-Glu24, αMeY25, K17 and K31: K(AEEA2-(γ-Glu)-CO-(CH2)12-CO2H), C-terminal NH2) [Example 52] | 0.258 | > 9950 | 0.384 |  | 
YXEGTXTSDXSIXLDXKAQXEFIXXLIEGGKSSGAPPPS (Aib2, αMeF(2F)6, hTyr10, αMeL13, Orn16, Aib20, D-Glu24, αMeY25, K17 and K31: K(AEEA2-(γ-Glu)-CO-(CH2)12-CO2H), C-terminal NH2) [Example 59] | 0.024 | > 9950 | 0.202 | 89.2 | 
YXEGTXTSDXSIXLDXKAQXEFIXXLIEGGKSSGAPPPS (Aib2, αMeF(2F)6, 4Pal10, αMeL13, Orn16, Aib20, D-Glu24, αMeY25, K17 and K31: K((εK)-AEEA-(γ-Glu)-CO-(CH2)12-CO2H), C-terminal NH2) [Example 36] | 0.0185 | > 9950 | 0.536 |  | 
YXEGTXTSDXSIXLDXKAQXEFIXXLIEGGKSSGAPPPS (Aib2, αMeF6, αMeF10, αMeL13, Orn16, Aib20, D-Glu24, αMeY25, K17 and K31: K(AEEA2-(γ-Glu)-CO-(CH2)12-CO2H), C-terminal NH2) [Example 45] | 0.0517 | > 9950 | 9.18 |  | 
YXEGTXTSDXSIXLDXKAQXEFIXXLIEGGKSSGAPPPS (Aib2, αMeF(2F)6, 4Pal10, αMeL13, Orn16, Aib20, D-Glu24, αMeY25, K17 and K31: K(AEEA-(γ-Glu)-AEEA-CO-(CH2)12-CO2H), C-terminal NH2) [Example 43] | 0.0123 | > 9950 | 0.821 |  | 
